Test results as given in paper PMC6686228, “Contribution of Cytidine Deaminase to Thymidylate Biosynthesis in Trypanosoma brucei: Intracellular Localization and Properties of the Enzyme” (mSphere, 2019).

What was measured:
[1] = target: Trypanosoma brucei cytidine deaminase (recombinant His tag fusion protein) (Trypanosoma brucei brucei (427 strain)); experiment: SEC; gel filtration of purified recombinant TbCDA on Superdex 200, 50 mM phosphate buffer (pH 7.4) plus 150 mM NaCl, calibrated with molecular weight markers; 500 ul injected
[2] = substrate: Nc1ccn([C@@H]2O[C@H](CO)[C@@H](O)[C@H]2O)c(=O)n1; experiment: purified protein; format: biochemical, Trypanosoma brucei; conditions: 50 mM Tris-HCl pH 7.5, 1 mM DTT, 0.125 μM enzyme
[3] = substrate: Cc1cn([C@H]2C[C@H](O)[C@@H](CO)O2)c(=O)nc1N; experiment: purified protein; format: biochemical, Trypanosoma brucei; conditions: 50 mM Tris-HCl pH 7.5, 1 mM DTT, 0.125 μM enzyme
[4] = substrate: Nc1ccn([C@H]2C[C@H](O)[C@@H](CO)O2)c(=O)n1; experiment: purified protein; format: biochemical, Trypanosoma brucei; conditions: 50 mM Tris-HCl pH 7.5, 1 mM DTT, 0.125 μM enzyme

| stoichiometry N [1] | Molecule | Km [2] [µM] | Vmax [2] [µmol/min/mg] | kcat [2] [s⁻¹] | kcat/Km [2] [M⁻¹ s⁻¹] | Km [3] [µM] | Vmax [3] [µmol/min/mg] | kcat [3] [s⁻¹] | kcat/Km [3] [M⁻¹ s⁻¹] | Km [4] [µM] | Vmax [4] [µmol/min/mg] | kcat [4] [s⁻¹] | kcat/Km [4] [M⁻¹ s⁻¹] |
| --- | --- | --- | --- | --- | --- | --- | --- | --- | --- | --- | --- | --- | --- |
| 4 | Trypanosoma brucei cytidine deaminase (recombinant His tag fusion protein) (enzyme) |  |  |  |  |  |  |  |  |  |  |  |  |
|  | TbCDA (Trypanosoma brucei brucei TREU927) (protein) MQCSSLKTGCLKLLSQLPEGLQQAGRTAVSAHQRSYCPYSNFAVGAALLHDDGKVTSGCNYETCVYKGTCAEACAIVKANMDGYRTAQAVAIYGRSVLPTAAAAAADATVPPCGFCRQLLAEVADLSGNMNDFLVVLVTFDQEHARLFRLSELLPQPFGPSSIGMDVAALATGEHSRCPGTF | 199.5 ± 9.0 | 126 | 44.8 ± 1.2 | 225000 | 24.5 ± 3.3 | 5.9 | 2.09 ± 0.08 | 85000 | 52.3 ± 4.5 | 34.9 | 12.4 ± 0.293 | 238000 |
